According to patent US20240402174A1 (Takeda / Millennium, published 2024):

Columns and labels:
Test in all cases: multiplex microsphere immunoassay
GI.4 VLP = molecular target: T1, GI.4 VLP (norovirus Hu/GI.4/1643/2008/US)
T1 construct: also called GI.4 US
T1 chain: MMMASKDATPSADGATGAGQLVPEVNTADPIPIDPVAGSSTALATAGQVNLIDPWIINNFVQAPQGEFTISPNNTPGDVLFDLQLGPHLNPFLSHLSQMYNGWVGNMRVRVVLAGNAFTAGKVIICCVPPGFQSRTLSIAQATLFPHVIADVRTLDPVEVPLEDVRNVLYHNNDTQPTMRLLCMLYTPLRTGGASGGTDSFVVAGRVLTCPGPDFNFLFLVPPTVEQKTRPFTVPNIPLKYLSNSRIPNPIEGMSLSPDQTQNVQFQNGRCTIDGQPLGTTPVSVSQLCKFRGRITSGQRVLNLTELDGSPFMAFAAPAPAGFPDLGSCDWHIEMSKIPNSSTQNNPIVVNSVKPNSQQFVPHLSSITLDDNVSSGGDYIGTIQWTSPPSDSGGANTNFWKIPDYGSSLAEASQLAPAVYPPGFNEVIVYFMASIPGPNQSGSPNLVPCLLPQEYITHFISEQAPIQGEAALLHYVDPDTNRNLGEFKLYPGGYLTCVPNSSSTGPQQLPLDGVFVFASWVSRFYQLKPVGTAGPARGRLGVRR

GI.2 VLP = molecular target: T2, GI.2 VLP (norovirus Hu/GI.2/Jingzhou/2013401/CHN, UniProt Q04542 1-546)
T2 construct: also called GI.2 Jingzhou
T2 chain: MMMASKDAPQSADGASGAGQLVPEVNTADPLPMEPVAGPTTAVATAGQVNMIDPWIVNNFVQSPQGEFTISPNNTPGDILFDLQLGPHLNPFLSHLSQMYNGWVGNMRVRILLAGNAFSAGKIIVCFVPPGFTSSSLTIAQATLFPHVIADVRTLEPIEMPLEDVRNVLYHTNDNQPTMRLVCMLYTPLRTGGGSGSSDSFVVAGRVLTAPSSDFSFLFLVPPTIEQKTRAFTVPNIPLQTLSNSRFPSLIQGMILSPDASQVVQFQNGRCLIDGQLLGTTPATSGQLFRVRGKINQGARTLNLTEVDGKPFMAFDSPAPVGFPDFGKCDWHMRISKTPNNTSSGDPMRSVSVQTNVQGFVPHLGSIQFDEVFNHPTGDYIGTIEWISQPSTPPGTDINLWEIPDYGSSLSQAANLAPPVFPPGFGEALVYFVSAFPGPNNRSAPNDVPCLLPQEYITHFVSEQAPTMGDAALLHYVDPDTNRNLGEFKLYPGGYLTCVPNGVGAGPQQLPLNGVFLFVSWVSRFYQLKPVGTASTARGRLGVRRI

GI.7 VLP = molecular target: T3, GI.7 VLP (norovirus Hu/GI.7/Providence191/2010/USA)
T3 construct: also called GI.7 Providence
T3 chain: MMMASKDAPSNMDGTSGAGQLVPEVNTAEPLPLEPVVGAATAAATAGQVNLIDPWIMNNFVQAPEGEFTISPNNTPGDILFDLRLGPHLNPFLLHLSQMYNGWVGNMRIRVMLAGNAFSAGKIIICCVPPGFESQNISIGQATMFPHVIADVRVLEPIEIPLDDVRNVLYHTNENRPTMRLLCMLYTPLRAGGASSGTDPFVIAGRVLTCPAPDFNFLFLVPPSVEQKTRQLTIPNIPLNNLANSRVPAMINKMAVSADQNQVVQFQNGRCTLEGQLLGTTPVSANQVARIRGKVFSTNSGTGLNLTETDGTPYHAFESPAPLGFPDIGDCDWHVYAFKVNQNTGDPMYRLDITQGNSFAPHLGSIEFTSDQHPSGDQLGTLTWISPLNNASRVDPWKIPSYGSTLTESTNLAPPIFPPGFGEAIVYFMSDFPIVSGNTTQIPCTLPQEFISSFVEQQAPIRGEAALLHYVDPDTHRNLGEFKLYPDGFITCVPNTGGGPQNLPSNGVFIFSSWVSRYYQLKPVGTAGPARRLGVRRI

GI.5 VLP = molecular target: T4, GI.5 VLP (norovirus …)
T4 construct: also called GI.5 Siklos
T4 chain: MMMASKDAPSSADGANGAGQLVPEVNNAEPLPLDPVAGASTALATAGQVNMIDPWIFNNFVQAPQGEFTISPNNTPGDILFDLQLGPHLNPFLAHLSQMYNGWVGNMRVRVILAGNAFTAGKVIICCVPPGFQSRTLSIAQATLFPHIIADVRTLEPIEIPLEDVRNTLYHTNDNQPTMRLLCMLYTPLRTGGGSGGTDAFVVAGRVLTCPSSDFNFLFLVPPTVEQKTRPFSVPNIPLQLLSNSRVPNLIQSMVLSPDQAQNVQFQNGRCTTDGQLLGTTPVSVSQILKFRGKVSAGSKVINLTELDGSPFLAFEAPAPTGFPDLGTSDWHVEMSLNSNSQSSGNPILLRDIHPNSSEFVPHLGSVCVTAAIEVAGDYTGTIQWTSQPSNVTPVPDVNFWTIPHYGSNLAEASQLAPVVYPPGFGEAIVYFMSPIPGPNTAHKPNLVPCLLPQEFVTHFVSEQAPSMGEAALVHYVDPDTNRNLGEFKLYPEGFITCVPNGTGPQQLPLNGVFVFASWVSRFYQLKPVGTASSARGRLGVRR

GI.1 VLP = molecular target: T5, GI.1 VLP (norovirus Hu/GI.1/Norwalk/1968/US, UniProt Q83884 1-530)
T5 construct: also called GI.1 Norwalk; GI.I/Norwalk VLP
T5 sequence: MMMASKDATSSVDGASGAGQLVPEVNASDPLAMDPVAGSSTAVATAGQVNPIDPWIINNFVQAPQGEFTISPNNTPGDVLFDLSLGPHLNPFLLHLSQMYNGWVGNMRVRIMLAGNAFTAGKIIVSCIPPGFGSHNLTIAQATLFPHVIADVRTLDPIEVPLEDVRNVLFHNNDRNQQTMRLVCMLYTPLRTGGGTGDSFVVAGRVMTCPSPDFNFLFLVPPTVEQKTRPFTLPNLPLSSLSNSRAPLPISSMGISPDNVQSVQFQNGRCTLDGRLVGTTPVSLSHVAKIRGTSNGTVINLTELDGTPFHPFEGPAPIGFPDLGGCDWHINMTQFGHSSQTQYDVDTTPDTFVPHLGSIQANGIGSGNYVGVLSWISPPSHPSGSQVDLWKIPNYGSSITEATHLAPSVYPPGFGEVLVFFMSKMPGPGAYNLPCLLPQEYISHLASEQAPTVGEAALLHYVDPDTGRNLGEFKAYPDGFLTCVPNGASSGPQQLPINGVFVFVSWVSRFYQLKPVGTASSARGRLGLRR

Measured: binding result

B1: human mAb 1431 (antibody, V domains shown)
VH: QVQLVQSGGGLVQPGGSLRLSCAASGFAFSNHGMHWVRQAPGKGLEWLSYISGSTGAIHYANSVKGRFTISRDNARNSLDLQMNSLGDEDTAVYYCARDGPRPDGTGYAGPSNDYWGQGTLVSVSS
VL: EIVLTQSPASLSLSPGERATLSCKASRSISIYLAWYQQKPGQAPRLLIYDASYRAIGIPARFSGSGSGTDFTLTISNLEPEDFAVYYCQHRSSWPALTFGGGTKVEI
notes: also called A1431
no binding: all assays above
